Target: T1, human FGFR2b expressed on cells (human, UniProt P21802-3 22-822)
T1 construct: whole, on cells; Used for the CHOK1 transfectants (FACS), the Ba/F3 cells with full-length human FGFR2b (ADCC) and the receptor on SNU-16 cells (signalling, proliferation); also called hFGFR2b-expressing CHOK1 cells; CHOK1-FGFR2IIIb transfectants
Test: flow cytometry on CHOK1 cells expressing hFGFR2b

T1 sequence (P21802 other isoform, or with tags, fused parts or gaps): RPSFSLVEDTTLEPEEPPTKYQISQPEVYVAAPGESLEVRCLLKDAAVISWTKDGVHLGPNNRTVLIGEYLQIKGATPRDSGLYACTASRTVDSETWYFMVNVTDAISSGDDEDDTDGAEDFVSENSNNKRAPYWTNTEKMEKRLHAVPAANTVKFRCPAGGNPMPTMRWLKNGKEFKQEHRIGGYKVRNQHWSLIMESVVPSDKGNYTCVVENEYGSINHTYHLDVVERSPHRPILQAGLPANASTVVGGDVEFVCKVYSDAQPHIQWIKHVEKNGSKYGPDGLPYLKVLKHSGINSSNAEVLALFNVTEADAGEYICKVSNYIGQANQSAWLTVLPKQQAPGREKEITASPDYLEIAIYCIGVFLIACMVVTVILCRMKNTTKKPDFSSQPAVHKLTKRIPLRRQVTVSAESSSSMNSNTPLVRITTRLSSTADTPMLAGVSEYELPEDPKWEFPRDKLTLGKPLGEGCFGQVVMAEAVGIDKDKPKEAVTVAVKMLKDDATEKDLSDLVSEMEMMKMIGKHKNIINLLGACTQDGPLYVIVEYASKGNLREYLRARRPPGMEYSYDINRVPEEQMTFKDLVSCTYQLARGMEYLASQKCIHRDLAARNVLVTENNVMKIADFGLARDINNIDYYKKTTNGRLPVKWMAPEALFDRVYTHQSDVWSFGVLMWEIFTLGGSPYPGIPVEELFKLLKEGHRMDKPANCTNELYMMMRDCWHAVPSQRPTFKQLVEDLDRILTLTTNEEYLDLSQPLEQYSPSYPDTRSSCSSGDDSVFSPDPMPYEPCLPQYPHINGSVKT

B1: HC18 (antibody, human IgG1, kappa, V domains shown)
VH: EVQLQQSGTVLARPGASVKMSCKTSGYTFTSYWMHWVKQRPGQGLEWIGSIYPENSDTSYNQKFKGKAKLTAVTSASTAYMDLSSLTNEDSAVYYCSIYHGYDGDYWGQGTTLTVSS
VL: QIVLTQSPAIMSASPGEKVTITCSASSSVSYMYWFQQKPGTSPKLWIYSTSNLASGVPARFSGSGSGTSYSLTISRMEAEDAATYYCQQRSSYPYTFGGGTKLEIKR
notes: also called mAb HC18; the antibody of the present disclosure
binding result: binds

From EP4499701A1 (dated 2025)
